IntAct's records for PubMed 25960410

B1: Mortality factor 4-like protein 1 (Homo sapiens), Q9UBU8-2 (parent)
chain: MAPKQDPKPKFQEGERVLCFHGPLLYEAKCVKVAIKDKQVKYFIHYSGWNKNWDEWVPESRVLKYVDTNLQKQRELQKANQEQYAEGKMRGAAPGKKTSGLQQKNVEVKTKKNKQKTPGNGDGGSTSETPQPPRKKRARVDPTVENEETFMNRVEVKVKIPEELKPWLVDDWDLITRQKQLFYLPAKKNVDSILEDYANYKKSRGNTDNKEYAVNEVVAGIKEYFNVMLGTQLLYKFERPQYAEILADHPDAPMSQVYGAPHLLRLFVRIGAMLAYTPLDEKSLALLLNYLHDFLKYLAKNSATLFSASDYEVAPPEYHRKAV

Variants of: B1
Conditions: with mrgbp_human MRGBP

| Variant | effect of a mutation on the interaction |
| --- | --- |
| L168A | decreasing interaction strength |
| W172A | decreasing interaction strength |
| L287A | decreasing interaction strength |
